Test results from the Human Domainome abundance scans (Beltran et al. 2025).
± gives the uncertainty stated by the source.

B1: Triacylglycerol hydrolase DDHD2, residues 389 to 447; numbered along this chain, O94830 (parent)
chain: TLEEDLKKLQLSEFFDIFEKEKVDKEALALCTDRDLQEIGIPLGPRKKILNYFSTRKNS

Variants of: B1
Assay: abundance fitness (aPCA) (normalised: wild type 0, dead -1); higher = more abundant; growth selection in yeast, the domain comes from the species named
Settings: Homo sapiens

For TLEEDLKKLQLSEFFDIFEKEKVDKEALALCTDRDLQEIGIPFGPRKKILNYFSTRKNS [L43F], which abundance fitness is on record?
The abundance fitness was 0.313 ± 0.053.

Which abundance fitness does the source give for TLEEDLKKLQLSEFFDIFEKEKVDKEALALCTDRDLQEIGIPEGPRKKILNYFSTRKNS [L43E] here?
Its abundance fitness is 0.725 ± 0.074.

With TLEEDLKKLQLSEFFDIFEKEKVDKEALALCTDRDLQESGIPLGPRKKILNYFSTRKNS [I39S] as the variant, how does the abundance fitness read?
The abundance fitness was -0.364 ± 0.078.

With TLEEDLKKLQLSEFFDIFEKEKVDKEALALCTDRDLQEWGIPLGPRKKILNYFSTRKNS [I39W] as the variant, how does the abundance fitness read?
The abundance fitness was 0.613 ± 0.072.

With TLEEALKKLQLSEFFDIFEKEKVDKEALALCTDRDLQEIGIPLGPRKKILNYFSTRKNS [D5A] as the variant, how does the abundance fitness read?
Its abundance fitness is -0.144 ± 0.06.

For TLEETLKKLQLSEFFDIFEKEKVDKEALALCTDRDLQEIGIPLGPRKKILNYFSTRKNS [D5T], which abundance fitness is on record?
The abundance fitness was 0.15 ± 0.069.

For TLEEDLKKLQLSEFPDIFEKEKVDKEALALCTDRDLQEIGIPLGPRKKILNYFSTRKNS [F15P], which abundance fitness is on record?
The abundance fitness was -0.537 ± 0.093.

For TLEEDLKKLQLSEFLDIFEKEKVDKEALALCTDRDLQEIGIPLGPRKKILNYFSTRKNS [F15L], which abundance fitness is on record?
The abundance fitness was 0.02 ± 0.067.

Which abundance fitness does the source give for TLEEDLKKLQLSEFFDIFEKEKVDKEALALCTDRDLQEIGIPLGPRKKILNLFSTRKNS [Y52L] here?
The abundance fitness was -0.354 ± 0.073.

For TLEEDLKKLQLSEFFDIFEKEKVDKEALALCTDRDLQEIGIPLGPRKKILNSFSTRKNS [Y52S], which abundance fitness is on record?
The abundance fitness was -0.15 ± 0.072.

For TLEEDLKKLQLSEVFDIFEKEKVDKEALALCTDRDLQEIGIPLGPRKKILNYFSTRKNS [F14V], which abundance fitness is on record?
Its abundance fitness is -0.505 ± 0.082.

With TLEEDLKKLQLSEMFDIFEKEKVDKEALALCTDRDLQEIGIPLGPRKKILNYFSTRKNS [F14M] as the variant, how does the abundance fitness read?
Its abundance fitness is -0.015 ± 0.085.

For TLEEDLKKLQLSEFFDIFEKEKVDKEALALCTDRDLQEIGEPLGPRKKILNYFSTRKNS [I41E], which abundance fitness is on record?
Its abundance fitness is -0.13 ± 0.086.

For TLEEDLKKLQLSEFFDIFEKEKVDKEALALCTDRDLQEIGAPLGPRKKILNYFSTRKNS [I41A], which abundance fitness is on record?
The abundance fitness was -0.433 ± 0.087.

With TLEEDLKKLQLSEFFDIFEKEKVDKEALALCTDRDLQEIGIPLGPRKKILNYFSTRNNS [K57N] as the variant, how does the abundance fitness read?
The abundance fitness was -0.287 ± 0.15.

For TLEEDLKKLQLSEFFDIFEKEKVDKEALALCTDRDLQEIGIPLGPRKKILNYFSTRHNS [K57H], which abundance fitness is on record?
The abundance fitness was -0.291 ± 0.18.

Which abundance fitness does the source give for TLENDLKKLQLSEFFDIFEKEKVDKEALALCTDRDLQEIGIPLGPRKKILNYFSTRKNS [E4N] here?
The abundance fitness was -0.341 ± 0.12.

For TLEMDLKKLQLSEFFDIFEKEKVDKEALALCTDRDLQEIGIPLGPRKKILNYFSTRKNS [E4M], which abundance fitness is on record?
Its abundance fitness is -0.109 ± 0.071.

With TLEPDLKKLQLSEFFDIFEKEKVDKEALALCTDRDLQEIGIPLGPRKKILNYFSTRKNS [E4P] as the variant, how does the abundance fitness read?
Its abundance fitness is -0.996 ± 0.11.

With TLEEDLKKLQLSEFFDIFEKEKVDKEALALCTDRDLQEIGIQLGPRKKILNYFSTRKNS [P42Q] as the variant, how does the abundance fitness read?
The abundance fitness was -0.393 ± 0.099.

With TLEEDLKKLQLSEFFDIFEKEKVDKEALALCTDRDLQEIGIHLGPRKKILNYFSTRKNS [P42H] as the variant, how does the abundance fitness read?
Its abundance fitness is -1.06 ± 0.33.

With TLEEDLKKLQLSEFFDIFEKEKVDKEALALCTDRDLQEIGIPLGPRKKIINYFSTRKNS [L50I] as the variant, how does the abundance fitness read?
The abundance fitness was 0.096 ± 0.11.

Which abundance fitness does the source give for TLEEDLKKLQLSEFFDIFEKEKVDKEALALCTDRDLQEILIPLGPRKKILNYFSTRKNS [G40L] here?
Its abundance fitness is -1.01 ± 0.098.

Which abundance fitness does the source give for TLEEDLKKLQLSEFFDIFEKEKVDKEALALCTDRDLQEICIPLGPRKKILNYFSTRKNS [G40C] here?
The abundance fitness was -0.573 ± 0.14.

For TLEEDLKKLQLSEFFDIFEKEKVDKEALALCTDRDLQEIGIPLGLRKKILNYFSTRKNS [P45L], which abundance fitness is on record?
The abundance fitness was -0.496 ± 0.072.

Which abundance fitness does the source give for TLEEDLKKLQLSEFFDIFEKEKVDKEALALCTDRDLQEIGIPLGCRKKILNYFSTRKNS [P45C] here?
The abundance fitness was -0.205 ± 0.085.

For TLEEDLKKLQLSEFFDIFEKEKVDKEACALCTDRDLQEIGIPLGPRKKILNYFSTRKNS [L28C], which abundance fitness is on record?
Its abundance fitness is -0.325 ± 0.1.

For TLEEDLKKLQLSEFFDIFEKEKVDKEALALCTDRDLQEIGIPLGPRKKILNYFSERKNS [T55E], which abundance fitness is on record?
The abundance fitness was 0.214 ± 0.081.

With TLEEDLKKLQLSEFFDIFEKEKVDKEALALCTDRDLQEIGIPLGPRKKILNYFSCRKNS [T55C] as the variant, how does the abundance fitness read?
Its abundance fitness is 0.041 ± 0.11.

Which abundance fitness does the source give for TLEEDLKKLQLSEFFDIFEKEKVDKEALALCTDRDLQEIGIPLGPRKKILNYFSQRKNS [T55Q] here?
The abundance fitness was 0.006 ± 0.11.

With TLEEDLKKLQLSEFFDIFEKEKVDKEALALCTDRDLQEIGIPLKPRKKILNYFSTRKNS [G44K] as the variant, how does the abundance fitness read?
The abundance fitness was 0.18 ± 0.072.

With TLEEDLKKLQLSEFFDIFEKEKVDKEALALCTDRDLQEIGIPLAPRKKILNYFSTRKNS [G44A] as the variant, how does the abundance fitness read?
Its abundance fitness is 0.35 ± 0.054.

With TLEEDLKKLQLSEFFDITEKEKVDKEALALCTDRDLQEIGIPLGPRKKILNYFSTRKNS [F18T] as the variant, how does the abundance fitness read?
The abundance fitness was -0.759 ± 0.12.

For TLEEDLKKLQLSEFFDIDEKEKVDKEALALCTDRDLQEIGIPLGPRKKILNYFSTRKNS [F18D], which abundance fitness is on record?
The abundance fitness was -0.399 ± 0.1.

With TLEEDLKKLQLSEFFDIWEKEKVDKEALALCTDRDLQEIGIPLGPRKKILNYFSTRKNS [F18W] as the variant, how does the abundance fitness read?
The abundance fitness was -0.535 ± 0.11.

Which abundance fitness does the source give for TLEEDLKKLQLSEFFDIFEKEKVDKEALHLCTDRDLQEIGIPLGPRKKILNYFSTRKNS [A29H] here?
The abundance fitness was 0.06 ± 0.11.

For TLEEDLKKLQLSEFFDIFEKEKVDKEALVLCTDRDLQEIGIPLGPRKKILNYFSTRKNS [A29V], which abundance fitness is on record?
The abundance fitness was -0.401 ± 0.084.

With TLEEDLKKLQLSEFFDIFEKEKVDKEALLLCTDRDLQEIGIPLGPRKKILNYFSTRKNS [A29L] as the variant, how does the abundance fitness read?
The abundance fitness was -0.323 ± 0.071.

With TLEEDLKKLQLSEFFDIFEKEKVDKEALFLCTDRDLQEIGIPLGPRKKILNYFSTRKNS [A29F] as the variant, how does the abundance fitness read?
Its abundance fitness is -0.066 ± 0.098.

With TLEEDLKKLQPSEFFDIFEKEKVDKEALALCTDRDLQEIGIPLGPRKKILNYFSTRKNS [L11P] as the variant, how does the abundance fitness read?
The abundance fitness was -1 ± 0.089.

For TLEEDLKKLQRSEFFDIFEKEKVDKEALALCTDRDLQEIGIPLGPRKKILNYFSTRKNS [L11R], which abundance fitness is on record?
Its abundance fitness is -0.996 ± 0.068.

For TLEEDLKKLQLSEFFDIFEKEKVDKEALALMTDRDLQEIGIPLGPRKKILNYFSTRKNS [C31M], which abundance fitness is on record?
The abundance fitness was 0.977 ± 0.084.

With TLEEDLKKLQLSEFFDIFEKEKVDKEALALCTDCDLQEIGIPLGPRKKILNYFSTRKNS [R34C] as the variant, how does the abundance fitness read?
The abundance fitness was 0.011 ± 0.093.

For TLEEDLKKLQLSEFFDIFEKEKVDKEALALCTDNDLQEIGIPLGPRKKILNYFSTRKNS [R34N], which abundance fitness is on record?
Its abundance fitness is 0.368 ± 0.089.

Which abundance fitness does the source give for TLEEDLKKLQLSEFFDIFEKEKVDKEALALCTDTDLQEIGIPLGPRKKILNYFSTRKNS [R34T] here?
The abundance fitness was 0.076 ± 0.082.
